Experiments:
[1] = molecular target: CD19 CAR containing FMC63 scFv, on the cell surface (CD19 CAR-T cells, CD19 CAR-293T cells); experiment: flow cytometry, CAR positive cells unmixed; AF488-CD19sIg1-4 against SSC-A; data reproduced from De Oliveira SN, et al., J Transl Med, 2013
[2] = molecular target: CD19 CAR containing FMC63 scFv, on the cell surface (CD19 CAR-T cells, CD19 CAR-293T cells); experiment: flow cytometry, CAR positive cells diluted 1:8 in negative cells; AF488-CD19sIg1-4 against SSC-A; data reproduced from De Oliveira SN, et al., J Transl Med, 2013
[3] = molecular target: CD19 CAR containing FMC63 scFv, on the cell surface (CD19 CAR-T cells, CD19 CAR-293T cells); experiment: flow cytometry, CAR positive cells diluted 1:16 in negative cells; AF488-CD19sIg1-4 against SSC-A; data reproduced from De Oliveira SN, et al., J Transl Med, 2013
[4] = molecular target: CD19 CAR containing FMC63 scFv, on the cell surface (CD19 CAR-T cells, CD19 CAR-293T cells); experiment: flow cytometry, CAR positive cells diluted 1:32 in negative cells; AF488-CD19sIg1-4 against SSC-A; data reproduced from De Oliveira SN, et al., J Transl Med, 2013
[5] = molecular target: CD19 CAR containing FMC63 scFv, on the cell surface (CD19 CAR-T cells, CD19 CAR-293T cells); experiment: flow cytometry, CAR positive cells diluted 1:64 in negative cells; AF488-CD19sIg1-4 against SSC-A; data reproduced from De Oliveira SN, et al., J Transl Med, 2013
[6] = molecular target: CD19 CAR containing FMC63 scFv, on the cell surface (CD19 CAR-T cells, CD19 CAR-293T cells); experiment: flow cytometry, CAR positive cells diluted 1:128 in negative cells; AF488-CD19sIg1-4 against SSC-A; data reproduced from De Oliveira SN, et al., J Transl Med, 2013

Sequence of CD19 CAR containing FMC63 scFv, on the cell surface (CD19 CAR-T cells, CD19 CAR-293T cells) (chain, as listed by the source): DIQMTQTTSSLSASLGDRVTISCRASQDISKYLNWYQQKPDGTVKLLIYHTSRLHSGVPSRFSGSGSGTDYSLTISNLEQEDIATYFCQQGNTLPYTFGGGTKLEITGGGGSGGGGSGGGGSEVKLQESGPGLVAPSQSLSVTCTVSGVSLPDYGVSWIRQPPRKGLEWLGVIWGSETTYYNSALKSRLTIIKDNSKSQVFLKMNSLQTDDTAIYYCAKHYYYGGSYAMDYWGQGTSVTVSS

- % of cells in the AF488-CD19sIg1-4 positive gate, CAR positive cell (unmixed) [1]: 65.9%
- % of cells in the AF488-CD19sIg1-4 positive gate, 1:8 [2]: 9.24%
- % of cells in the AF488-CD19sIg1-4 positive gate, 1:16 [3]: 4.28%
- % of cells in the AF488-CD19sIg1-4 positive gate, 1:32 [4]: 2.96%
- % of cells in the AF488-CD19sIg1-4 positive gate, 1:64 [5]: 1.34%
- % of cells in the AF488-CD19sIg1-4 positive gate, 1:128 [6]: 0.646%
Substance: CD19/Fc (Fc fusion)
